{"source": "patent US20190248881A1", "binders": {"B1": {"name": "1D11 (PCT-001), mouse monoclonal anti-TGF-β antibody (antibody, from another filing, V domains shown)", "VH": "QVQLQQSGPELVRPGASVKLSCKASGYIFITYWMNWVKQRPGQGLEWIGQIFPASGSTNYNEMFEGKATLTVDTSSSTAYMQLSSLTSEDSAVYYCARGDGNYALDAMDYWGQGTSVTVSS", "VL": "DIVLTQSPASLAVSLGQRATISCRASESVDSYGNSFMHWYQQKSGQPPKLLIYLASNLESGVPARFSGSGSRTDFTLTIDPVEADDAATYYCQQNNEDPLTFGAGTKLEIK"}}, "key": {"TGF-β3 [1]": {"molecular_target": "T1, TGF-β3 (UniProt P10600)", "T1 sequence (looked up)": "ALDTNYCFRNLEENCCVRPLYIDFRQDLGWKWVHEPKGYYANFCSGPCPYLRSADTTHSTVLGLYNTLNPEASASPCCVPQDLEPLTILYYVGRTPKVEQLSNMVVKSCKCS"}, "TGF-β1 [2]": {"molecular_target": "TGF-β1 (UniProt P01137)", "sequence (P01137 279-390 limits assumed)": "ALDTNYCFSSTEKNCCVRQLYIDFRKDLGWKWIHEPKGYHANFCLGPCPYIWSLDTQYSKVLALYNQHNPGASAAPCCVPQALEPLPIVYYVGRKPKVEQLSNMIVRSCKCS"}, "TGF-β3 [3]": {"molecular_target": "T1, TGF-β3", "remark": "listed apart in the source"}, "TGF-β2 [4]": {"molecular_target": "T2, TGF-β2 (UniProt P61812)", "T2 sequence (looked up)": "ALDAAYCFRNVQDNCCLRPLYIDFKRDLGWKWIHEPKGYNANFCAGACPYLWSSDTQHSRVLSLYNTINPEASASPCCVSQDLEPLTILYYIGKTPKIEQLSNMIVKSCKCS"}, "TGF-β1 [5]": {"molecular_target": "TGF-β1 (UniProt P01137)", "remark": "listed apart in the source"}, "TGF-β2 [6]": {"molecular_target": "T2, TGF-β2", "remark": "listed apart in the source"}, "TGF-β1 [7]": {"molecular_target": "TGF-β1 (UniProt P01137)", "test": "SPR; cycle 10, TGF-B1"}, "TGF-β2 [8]": {"molecular_target": "T2, TGF-β2", "test": "SPR; cycle 10, TGF-B2"}, "TGF-β3 [9]": {"molecular_target": "T1, TGF-β3", "test": "SPR; cycle 10, TGF-B3"}, "TGF-β1 [10]": {"molecular_target": "TGF-β1 (UniProt P01137)", "test": "SPR; cycle 12, TGF-B1"}, "TGF-β2 [11]": {"molecular_target": "T2, TGF-β2", "test": "SPR; cycle 12, TGF-B2"}, "TGF-β3 [12]": {"molecular_target": "T1, TGF-β3", "test": "SPR; cycle 12, TGF-B3"}, "TGF-β1 [13]": {"molecular_target": "TGF-β1 (UniProt P01137)", "test": "SPR; cycle 14, TGF-B1"}, "TGF-β2 [14]": {"molecular_target": "T2, TGF-β2", "test": "SPR; cycle 14, TGF-B2"}, "TGF-β3 [15]": {"molecular_target": "T1, TGF-β3", "test": "SPR; cycle 14, TGF-B3"}, "TGF-β1 [16]": {"molecular_target": "TGF-β1 (UniProt P01137)", "test": "cell-based or functional assay"}, "TGF-β2 [17]": {"molecular_target": "T2, TGF-β2", "test": "cell-based or functional assay"}, "TGF-β3 [18]": {"molecular_target": "T1, TGF-β3", "test": "cell-based or functional assay"}, "TGF-β1 [19]": {"molecular_target": "TGF-β1 (UniProt P01137)", "test": "cell-based or functional assay", "set-up": "unit not given beside the values"}, "TGF-β2 [20]": {"molecular_target": "T2, TGF-β2", "test": "cell-based or functional assay", "set-up": "unit not given beside the values"}, "TGF-β3 [21]": {"molecular_target": "T1, TGF-β3", "test": "cell-based or functional assay", "set-up": "unit not given beside the values"}, "TGF-β1 [22]": {"molecular_target": "TGF-β1 (UniProt P01137)", "test": "SPR; average of cycles 10, 12, 14, TGF-B1"}, "TGF-β2 [23]": {"molecular_target": "T2, TGF-β2", "test": "SPR; average of cycles 10, 12, 14, TGF-B2"}, "TGF-β3 [24]": {"molecular_target": "T1, TGF-β3", "test": "SPR; average of cycles 10, 12, 14, TGF-B3"}}, "note": "Where two headings read alike, the source gives them in different places."}
{"binder": "B1", "values": [{"measurement": "IC50 (read off the curve)", "setting": "TGF-β3 [1]", "value": 0.02, "unit": "nM"}, {"measurement": "IC50 (read off the curve)", "setting": "TGF-β1 [2]", "value": 0.1, "unit": "nM"}, {"measurement": "IC50 (read off the curve)", "setting": "TGF-β3 [3]", "value": 0.03, "unit": "nM"}, {"measurement": "IC50 (read off the curve)", "setting": "TGF-β2 [4]", "value": 0.2, "unit": "nM"}, {"measurement": "IC50 (read off the curve)", "setting": "TGF-β1 [5]", "value": 0.2, "unit": "nM"}, {"measurement": "IC50 (read off the curve)", "setting": "TGF-β2 [6]", "value": 0.4, "unit": "nM"}, {"measurement": "Kd", "setting": "TGF-β1 [7]", "value": 0.102, "unit": "nM"}, {"measurement": "koff", "setting": "TGF-β1 [7]", "value": "4.23e-05", "unit": "s⁻¹"}, {"measurement": "kon", "setting": "TGF-β1 [7]", "value": 416000, "unit": "M⁻¹ s⁻¹"}, {"measurement": "Kd", "setting": "TGF-β2 [8]", "value": 0.0832, "unit": "nM"}, {"measurement": "koff", "setting": "TGF-β2 [8]", "value": "5.17e-05", "unit": "s⁻¹"}, {"measurement": "kon", "setting": "TGF-β2 [8]", "value": 621000, "unit": "M⁻¹ s⁻¹"}, {"measurement": "Kd", "setting": "TGF-β3 [9]", "value": 0.0108, "unit": "nM"}, {"measurement": "koff", "setting": "TGF-β3 [9]", "value": "2.9e-06", "unit": "s⁻¹"}, {"measurement": "kon", "setting": "TGF-β3 [9]", "value": 268000, "unit": "M⁻¹ s⁻¹"}, {"measurement": "Kd", "setting": "TGF-β1 [10]", "value": 0.0873, "unit": "nM"}, {"measurement": "koff", "setting": "TGF-β1 [10]", "value": "4.18e-05", "unit": "s⁻¹"}, {"measurement": "kon", "setting": "TGF-β1 [10]", "value": 479000, "unit": "M⁻¹ s⁻¹"}, {"measurement": "Kd", "setting": "TGF-β2 [11]", "value": 0.082, "unit": "nM"}, {"measurement": "koff", "setting": "TGF-β2 [11]", "value": "5.54e-05", "unit": "s⁻¹"}, {"measurement": "kon", "setting": "TGF-β2 [11]", "value": 675000, "unit": "M⁻¹ s⁻¹"}, {"measurement": "Kd", "setting": "TGF-β3 [12]", "value": 0.016, "unit": "nM"}, {"measurement": "koff", "setting": "TGF-β3 [12]", "value": "5.06e-06", "unit": "s⁻¹"}, {"measurement": "kon", "setting": "TGF-β3 [12]", "value": 316000, "unit": "M⁻¹ s⁻¹"}, {"measurement": "Kd", "setting": "TGF-β1 [13]", "value": 0.0733, "unit": "nM"}, {"measurement": "koff", "setting": "TGF-β1 [13]", "value": "3.78e-05", "unit": "s⁻¹"}, {"measurement": "kon", "setting": "TGF-β1 [13]", "value": 515000, "unit": "M⁻¹ s⁻¹"}, {"measurement": "Kd", "setting": "TGF-β2 [14]", "value": 0.0723, "unit": "nM"}, {"measurement": "koff", "setting": "TGF-β2 [14]", "value": "4.98e-05", "unit": "s⁻¹"}, {"measurement": "kon", "setting": "TGF-β2 [14]", "value": 690000, "unit": "M⁻¹ s⁻¹"}, {"measurement": "Kd", "setting": "TGF-β3 [15]", "value": 0.00793, "unit": "nM"}, {"measurement": "koff", "setting": "TGF-β3 [15]", "value": "2.75e-06", "unit": "s⁻¹"}, {"measurement": "kon", "setting": "TGF-β3 [15]", "value": 346000, "unit": "M⁻¹ s⁻¹"}, {"measurement": "EC50, TGF-β isoform neutralization", "setting": "TGF-β1 [16]", "value": 0.0478, "unit": "nM"}, {"measurement": "EC50 for neutralization of TGF-β", "setting": "TGF-β1 [16]", "value": 164, "unit": "picomol/L"}, {"measurement": "EC50, TGF-β isoform neutralization", "setting": "TGF-β2 [17]", "value": 0.591, "unit": "nM"}, {"measurement": "EC50 for neutralization of TGF-β", "setting": "TGF-β2 [17]", "value": 382, "unit": "picomol/L"}, {"measurement": "EC50, TGF-β isoform neutralization", "setting": "TGF-β3 [18]", "value": 0.225, "unit": "nM"}, {"measurement": "EC50 for neutralization of TGF-β", "setting": "TGF-β3 [18]", "value": 19, "unit": "picomol/L"}, {"measurement": "IC50 for neutralization of TGF-β", "setting": "TGF-β1 [19]", "value": 0.0722}, {"measurement": "IC50 for neutralization of TGF-β", "setting": "TGF-β2 [20]", "value": 0.492}, {"measurement": "IC50 for neutralization of TGF-β", "setting": "TGF-β3 [21]", "value": 0.0547}, {"measurement": "Kd", "setting": "TGF-β1 [22]", "value": 0.0873, "unit": "nM"}, {"measurement": "koff", "setting": "TGF-β1 [22]", "value": "4.06e-05", "unit": "s⁻¹"}, {"measurement": "kon", "setting": "TGF-β1 [22]", "value": 470000, "unit": "M⁻¹ s⁻¹"}, {"measurement": "Kd", "setting": "TGF-β2 [23]", "value": 0.0792, "unit": "nM"}, {"measurement": "koff", "setting": "TGF-β2 [23]", "value": "5.23e-05", "unit": "s⁻¹"}, {"measurement": "kon", "setting": "TGF-β2 [23]", "value": 662000, "unit": "M⁻¹ s⁻¹"}, {"measurement": "Kd", "setting": "TGF-β3 [24]", "value": 0.0116, "unit": "nM"}, {"measurement": "koff", "setting": "TGF-β3 [24]", "value": "3.57e-06", "unit": "s⁻¹"}, {"measurement": "kon", "setting": "TGF-β3 [24]", "value": 310000, "unit": "M⁻¹ s⁻¹"}]}
